Test results from patent US11572572B2, “A138T mutation-containing plant EPSPS mutant, and encoding gene and application thereof” (GEVOTO LLC, priority 2017, dated 2023).
Positions count from the first letter of the chain named.

B1: R0: wild-type Oryza sativa EPSPS (SEQ ID NO: 5), encoding gene SEQ ID NO: 14; control group of Example 5 (protein, listed as Oryza sativa)
chain: MASNAAAAAAKAEEIVLQPIREISGAVQLPGSKSLSNRILLLSALSEGTTVVDNLLNSEDVHYMLEALKALGLSVEADKVAKRAVVVGCGGKFPVEKDAKEEVQLFLGNAGTAMRPLTAAVTAAGGNATYVLDGVPRMRERPIGDLVVGLKQLGADVDCFLGTECPPVRVKGIGGLPGGKVKLSGSISSQYLSALLMAAPLALGDVEIEIIDKLISIPYVEMTLRLMERFGVKAEHSDSWDRFYIKGGQKYKSPGNAYVEGDASSASYFLAGAAITGGTVTVQGCGTTSLQGDVKFAEVLEMMGAKVTWTDTSVTVTGPPREPYGKKHLKAVDVNMNKMPDVAMTLAVVALFADGPTAIRDVASWRVKETERMVAIRTELTKLGASVEEGPDYCIITPPEKLNITAIDTYDDHRMAMAFSLAACADVPVTIRDPGCTRKTFPNYFDVLSTFVRN
B2: R1: Oryza sativa EPSPS mutant I with A155(138)T mutation (SEQ ID NO: 6), encoding gene SEQ ID NO: 15 (protein)
chain: B1 chain with A155T
modifications: Oryza sativa EPSPS mutant with mutation A155(138)T
B3: R2: Oryza sativa EPSPS mutant having only the G111(96)A mutation (SEQ ID NO: 2), encoding gene SEQ ID NO: 16 (protein)
chain: B1 chain with G111A
modifications: Oryza sativa EPSPS mutant with only G111(96)A mutation

How the values were obtained:
[1] = test system: double-knockout Escherichia coli strain (EDCE); experiment: Growth of double-knockout E. coli (EDCE) transformed with Oryza sativa EPSPS genes in glyphosate media (Example 5); assay type: cell-based; settings: Example 5, FIG. 1
Excerpt: An Escherichia coli strain transformed with the Oryza sativa EPSPS mutant I-encoding gene according to Example 1 was used as Experimental Group 1 (having only the A155(138)T mutation).
An Escherichia coli strain transformed with the Oryza sativa EPSPS mutant II-encoding gene according to Example 2 was used as Experimental Group 3 (having the G111(96)A mutation and A155(138)T mutation).
An Escherichia coli strain transformed with a wild-type Oryza sativa EPSPS-encoding gene (SEQ ID NO: 14, encoding wild-type Oryza sativa EPSPS set forth in SEQ ID NO: 5) was used as a control group.
The glyphosate resistance of the Oryza sativa EPSPS mutant I-encoding gene and the encoded Oryza sativa EPSPS mutant I in Escherichia coli, and the glyphosate resistance of the Oryza sativa EPSPS mutant II-encoding gene and the encoded Oryza sativa EPSPS mutant II in Escherichia coli were verified by detecting the growth statuses of the transformed Escherichia coli in media containing different concentrations of glyphosate (0 mM, 1 mM, 2 mM, 20 mM) (media obtained by using M9 as a basal medium and then adding certain concentrations of antibiotics Spec (Spectinomycin), Gen (Gentamycin), and Amp (Ampicillin) and different concentrations of glyphosate).
Here, the Escherichia coli strain used was an double-knockout Escherichia coli strain (Escherichia coli strain DH5a from which an EPSPS gene and a C-P Lyase gene were knocked out, named EDCE, which may be prepared by a method with reference to Chinese Patent Application No. 2016103256926).
The detection was carried out by a method well known in the art, which was briefly described below. Gene encoding Oryza sativa EPSPS mutants was synthesized by a chemical synthesis method, wherein enzymatic digestion sites (Pacl and Sbfl) were introduced at both ends of the gene. The gene were enzymatically cleaved and then ligated in the presence of ligase to an expression vector (e.g., pADV5 vector having a structure as shown in FIG. 4) subjected to the same enzymatic digestion treatment, and then were transformed into the double-knockout Escherichia coli strain. After verification, positive clones were picked out and inoculated and grown in media containing glyphosate. The growth statuses were observed.

[2] = test system: transgenic rice seedlings; experiment: Glyphosate resistance of EPSPS mutants in transgenic rice sprayed with glyphosate (Example 8); assay type: in vivo, rice (Nipponbare); settings: for glyphosate resistance of transformed rice seedlings (in words): after spraying with 1× glyphosate
Excerpt: The glyphosate resistance of the EPSPS mutants of the above examples in transgenic rice was detected by the following method.
Plasmids of monoclonal resistant strain comprising pADV5-EPSPS of Examples 1-4 (containing the EPSPS mutant genes) were extracted in accordance with a conventional method. They were subjected to double enzymatic digestion with Pacl and BstEII to recover small fragments, and then the small fragments were ligated, using T4 DNA ligase, to a pGVP1 vector subjected to double enzymatic digestion in the same manner, to obtain a pGVP1-EPSPS vector having a structure as shown in FIG. 8.
The pGVP1-EPSPS vector was transformed into EHA105 (Agrobacterium tumefaciens) competent cells, and single clones were picked out for colony PCR detection to obtain positive strains. Then, the positive strains were inoculated into and propagated in 1 mL of a YEP medium containing 50 μg·mL^−1 kanamycin and 50 μg·mL^−1 rifampicin, and stored at −80° C. or used in subsequent experiments.
400 ul of a strain containing the target gene vector stored at −80° C. was added to a culture dish with a solid medium containing YEP+50 μg/mL rifampicin+50 μg/mL kanamycin and cultured in the dark at 28° C. for 24 hours, and then the bacterium was added to an infection medium and adjusted to OD=0.2 as an infection solution.
Disinfection and Pre-culture: seeds of mature rice (Nipponbare) were manually dehulled. Full seeds with no bacterial plaques were selected and disinfected in accordance with the following steps: the seeds were placed in a 50 ml sterile centrifuge tube and disinfected with the added 70% ethanol in water for 30 seconds, ethanol solution was poured out, and the seeds were washed once with sterile water; 10 to 20 ml of 2.6% sodium hypochlorite solution was added to soak and disinfect the seeds for 20 minutes. The sodium hypochlorite solution was poured out, and the seeds were soaked and washed with sterile water for 6 or 7 times, for 3 minutes each time.
Induction and Subculture: the seeds were placed on and blotted with sterile filter paper, and the mature embryos were placed in an induction medium, with 12 embryos per dish. After the operation was completed, the culture dishes were sealed with parafilm and underwent culturing in the dark at 30° C. for 21 to 28 days. Callus tissue was transferred to a fresh medium and continued to be cultured for about 7 to 14 days. Spherical callus tissue with a dimension of 1 to 2 mm was taken as an infection receptor.
The callus tissue was placed into a centrifuge tube or culture cup, infected in the prepared Agrobacterium suspension added thereto for 10 minutes, and shaken several times during the period; the bacterial solution was poured out, the callus tissue was taken out and placed on sterile filter paper for absorbing the bacterial solution from its surface (for about 30 minutes); the callus tissue was placed on sterile filter paper in culture dishes and cultured in the dark at 25° C. for 2 or 3 days.
Recovery Culture: the co-cultured callus tissue was inoculated on a recovery medium and cultured in the dark at 30° C. for 5 to 7 days.
Primary Screening: the callus was transferred to screening medium 1 (51) and cultured in the dark at 30° C. for 14 days.
Secondary Screening: the callus was then transferred to screening medium 2 (S2) and cultured in the dark at 30° C. for 14 days.
Primary Differentiation: the screened resistant callus tissue was transferred to a differentiation medium and cultured for about 21 days at 30° C. under exposure to light for 19 hours.
Secondary Differentiation: new young shoots were selected and moved to a fresh differentiation medium and continued to be cultured for about 21 days.
When the new seedlings grew to about 2 cm, they were moved to a rooting medium and cultured for 3 to 4 weeks at 30° C. under exposure to light (for 16/8 h). […]

[3] = medium containing 1 mM glyphosate
[4] = medium containing 2 mM glyphosate
[5] = medium containing 20 mM glyphosate
[6] = 1X dose glyphosate (1,060 g/ha), day 10 after spraying
[7] = 2X dose glyphosate (2,120 g/ha) on survivors of 1X, after another 10 days
[8] = 5X dose glyphosate (5,300 g/ha) on survivors of 2X, after additional 10 days
[9] = 20X dose glyphosate (21,200 g/ha) on survivors of 5X, after further 10 days

| Molecule | growth status of transformed Escherichia coli [1, 3] | growth status of transformed Escherichia coli [1, 4] | growth status of transformed Escherichia coli [1, 5] | % ++&+++ (percentage of moderately and highly glyphosate resistant plants in total plants observed) [2, 6] [%] | plant number with resistance + (low glyphosate resistant) [2, 6] | plant number with resistance ++ (moderately glyphosate resistant) [2, 6] | plant number with resistance +++ (highly glyphosate resistant) [2, 6] | % ++&+++ (percentage of moderately and highly glyphosate resistant plants in total plants observed) [2, 7] [%] | plant number with resistance + (low glyphosate resistant) [2, 7] | plant number with resistance ++ (moderately glyphosate resistant) [2, 7] | plant number with resistance +++ (highly glyphosate resistant) [2, 7] | plant number with resistance − (non-glyphosate resistant, withered or dead) [2, 7] | % ++&+++ (percentage of moderately and highly glyphosate resistant plants in total plants observed) [2, 8] [%] | plant number with resistance + (low glyphosate resistant) [2, 8] | plant number with resistance ++ (moderately glyphosate resistant) [2, 8] | plant number with resistance +++ (highly glyphosate resistant) [2, 8] | plant number with resistance − (non-glyphosate resistant, withered or dead) [2, 8] | % ++&+++ (percentage of moderately and highly glyphosate resistant plants in total plants observed) [2, 9] [%] | plant number with resistance + (low glyphosate resistant) [2, 9] | plant number with resistance ++ (moderately glyphosate resistant) [2, 9] | other results |
| --- | --- | --- | --- | --- | --- | --- | --- | --- | --- | --- | --- | --- | --- | --- | --- | --- | --- | --- | --- | --- | --- |
| B1 | could not grow | could not grow | could not grow | 0.0 | 1 | 0 | 0 | 0.0 | 0 | 0 | 0 | 31 | 0.0 | 0 | 0 | 0 | 31 | 0.0 | 0 | 0 | growth status of transformed Escherichia coli ([1]; medium containing 0 mM glyphosate): could grow; plant number with resistance +++ (highly glyphosate resistant) [2, 9]: 0; plant number with resistance − (non-glyphosate resistant, withered or dead) [2, 9]: 31; glyphosate resistance of transformed rice seedlings (in words) [2]: all had no resistance |
| B2 | showed bacterial plaques | could not grow | could not grow | 58.1 | 8 | 7 | 11 | 0.0 | 5 | 0 | 0 | 26 | 0.0 | 1 | 0 | 0 | 30 | 0.0 | 0 | 0 | survival of transformed rice seedlings (in words) ([2]; 2× and 5× glyphosate doses): all of them survived; plant number with resistance +++ (highly glyphosate resistant) [2, 9]: 0; plant number with resistance − (non-glyphosate resistant, withered or dead) [2, 9]: 31; glyphosate resistance of transformed rice seedlings (in words) [2]: significantly better glyphosate resistance than that of R0 |
| B3 | showed bacterial plaques | could not grow | could not grow | 69.2 | 2 | 1 | 8 | 61.5 | 2 | 2 | 6 | 3 | 46.2 | 2 | 3 | 3 | 5 | 15.4 | 4 | 1 | plant number with resistance +++ (highly glyphosate resistant) [2, 9]: 1; plant number with resistance − (non-glyphosate resistant, withered or dead) [2, 9]: 7 |
